{
  "source": "paper PMC3137634",
  "about": "“Concurrent Proinflammatory and Apoptotic Activity of a Helicobacter pylori Protein (HP986) Points to Its Role in Chronic Persistence” (PLoS ONE, 2011)",
  "target": "T1, recombinant HP986 (Helicobacter pylori, UniProt O25636 1-237)",
  "T1 construct": "HP986 (HP0986), protein of unknown function from the plasticity zone of Helicobacter pylori; PCR product spanning 711 bp cloned at XhoI/HindIII of pRSETA; about 29 kDa; 711 bp would be 237 codons with the stop or without; also called rHP986; HP0986; source: E. coli BL21 (DE3), purified (Ni2+-NTA, size exclusion chromatography)",
  "T1 sequence": "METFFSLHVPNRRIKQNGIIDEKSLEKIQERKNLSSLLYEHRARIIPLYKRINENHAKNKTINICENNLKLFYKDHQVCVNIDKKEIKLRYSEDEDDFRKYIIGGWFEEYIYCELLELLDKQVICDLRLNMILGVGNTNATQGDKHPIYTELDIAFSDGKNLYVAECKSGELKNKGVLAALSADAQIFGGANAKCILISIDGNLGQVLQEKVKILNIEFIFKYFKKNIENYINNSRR",
  "assay": "SPR; BIAcore 3000; human TNFR1/Fc amine-coupled to a CM5 chip up to 150 RU; rHP986 at 100, 400, 800 and 1200 nM in PBS, 30 µl/min; 1:1 Langmuir model",
  "conditions": "both partners purified",
  "data": [
    {"binder": "Human TNFR1/Fc (Fc fusion, UniProt P19438 30-211, looked up, soluble human TNFR1 (tumor necrosis factor receptor 1) fused to Fc; Commercial TNFR1/Fc chimeras usually hold the extracellular domain joined to human IgG1 Fc at the C-terminus; also called soluble humanTNFR1; hu TNFR1; source: bought: Sigma, USA) LVPHLGDREKRDSVCPQGKYIHPQNNSICCTKCHKGTYLYNDCPGPGQDTDCRECESGSFTASENHLRHCLSCSKCRKEMGQVEISSCTVDRDTVCGCRKNQYRHYWSENLFQCFNCSLCLNGTVHLSCQEKQNTVCTCHAGFFLRENECVSCSNCKKSLECTKLCLPQIENVKGTEDSGTT", "values": [
      {"measurement": "koff", "value": 0.000908, "unit": "s⁻¹"},
      {"measurement": "kon", "value": 12600, "unit": "M⁻¹ s⁻¹"}
    ]}
  ]
}
